Results on 2 proteins are retold here after PMC2896474, “Thioredoxin A Active-Site Mutants Form Mixed Disulfide Dimers That Resemble Enzyme–Substrate Reaction Intermediates” (Journal of Molecular Biology, 2008).

The data set deals with the molecule itself. Kind of data set: nonreducing SDS-PAGE + capillary gel electrophoresis (2100 Bioanalyzer); purified His6-tagged BsTrxA proteins alone, ~2.5 μg a lane, nonreducing conditions (no DTT, no AMS); peak integration for dimer-to-monomer ratios; dimer to monomers (Fig. 2a).

B1: C32S single-mutant BsTrxA, C-terminal His6-tag (enzyme, B. subtilis 168, UniProt P14949 1-104, looked up)
chain: MAIVKATDQSFSAETSEGVVLADFWAPWCGPSKMIAPVLEELDQEMGDKLKIVKIDVDENQETAGKYGVMSIPTLLVLKDGEVVETSVGFKPKEALQELVNKHL
notes: In the homodimer the two chains are joined by a Cys29-Cys29 disulfide bond (crystal structure 2VOC); Vector probably adds Leu-Glu before His6 (surmised); also called C32S BsTrxA; TrxA C32S; source: E. coli BL21(DE3), purified (nickel IMAC HisTrap HP, Superdex 75 gel filtration); not shown: His6, C-terminal, kept
Regarding B1, the stoichiometry N (commonly a count of units in the complex or per binding partner) came out at 2.

B2: C29S single-mutant BsTrxA, C-terminal His6-tag (enzyme, B. subtilis 168, UniProt P14949 1-104, looked up)
chain: MAIVKATDQSFSAETSEGVVLADFWAPWSGPCKMIAPVLEELDQEMGDKLKIVKIDVDENQETAGKYGVMSIPTLLVLKDGEVVETSVGFKPKEALQELVNKHL
notes: Vector probably adds Leu-Glu before His6 (surmised); also called C29S BsTrxA; BsTrxA(C29S); source: E. coli BL21(DE3), purified (nickel IMAC HisTrap HP, Superdex 75 gel filtration); not shown: His6, C-terminal, kept
On to B2, for which the “stoichiometry N” value came to 2.
